Read-outs that look alike come from different tables or passages of the source. Where no end group is shown, it is not given here. [ ]: non-standard residue; d: D form. APC = trans-3-aminopyrrolidine-4-carboxylic acid; ACPC = trans-2-aminocyclopentanecarboxylic acid; β3hR = N=C(N)NCCC[C@H](N)CC(=O)O; β3hT = C[C@@H](O)[C@H](N)CC(=O)O; β3hE = N[C@@H](CCC(=O)O)CC(=O)O; β3hA = C[C@H](N)CC(=O)O
Assays:
[1] = target: T1, gp41 of the envelope glycoprotein of the HIV-1 clone HxB2 (HIV-1 clone HxB2, UniProt P04578 33-856); assay: cell-based or functional assay
[2] = target: T1, gp41 of the envelope glycoprotein of …; assay: cell-based or functional assay; remark: listed apart in the source
[3] = target: gp41 of HIV-1 strain NL4-3 (HIV-1 strain NL4-3); assay: cell-based or functional assay
gp41 of HIV-1 strain HC4 = gp41 of HIV-1 strain HC4 (HIV-1 strain HC4); assay: cell-based or functional assay
[4] = target: gp41 of HIV-1 strain CC 1/85 (HIV-1 strain CC 1/85); assay: cell-based or functional assay
[5] = target: gp41 of HIV-1 strain DJ258 (HIV-1 strain DJ258); assay: cell-based or functional assay
gp41-5 [6] = target: T2, gp41-5 (HIV); assay: competition FP; displacement of Flu-C38 from gp41-5
T2 construct: also called gp41-5 protein construct; five-helix bundle protein

gp41-5 [7] = target: T2, gp41-5; assay: as above; remark: listed apart in the source
Method: Competition fluorescence polarization assays were conducted in black 96-well plates. […] A second stock plate was prepared containing serial dilutions of peptide inhibitors in DMSO. The peptide stock solutions were transferred to the assay plate (1 μL per well). […] All experimental conditions were carried out in duplicate, and each peptide was assayed in 2-3 independent experiments. Data analysis was carried out in GraphPad Prism. Raw mP data from each experiment were fit to a sigmoidal dose response and normalized to the resulting parameters for the top and bottom of the curve. All experiments included at least one compound showing complete inhibition at the highest concentrations tested. Normalized data from multiple independent runs of the each oligomer were combined and globally fit to an exact analytical expressions for FP competitive binding with Kᵢ as the only floating parameter.

NHR α-peptide 1 [8] = target: T3, NHR α-peptide 1 (HIV, N-terminus acetyl-capped); assay: CD at 222 nm, thermal unfolding, 20 µM total peptide in PBS
T3 construct: Forms a six-helix bundle (three NHR and three CHR helices) when mixed with CHR peptides; also called NHR peptide 1

NHR α-peptide 1 [9] = target: T3, NHR α-peptide 1; assay: as above; remark: listed apart in the source
gp41-5 [10] = target: T2, gp41-5; assay: competition FP on gp41-5
[11] = target: the molecule itself; assay: crystal structure of 10 alone (self-assembly)
gp41-5 [12] = target: T2, gp41-5; assay: competition FP; displacement of Flu-C38 from gp41-5; remark: listed apart in the source

Ac-TTWEAWDRAIAEYAARIEALIRAAQEQQEKNEAALREL (also called T-2635; CHR α-peptide 3) [α-peptide 3]
Cell-Cell Fusion IC50 [1]: 9 nM | Cell-cell fusion inhibition IC50 [2]: 9 nM | Inhibition of HIV-1 infectivity, IC50 (nM), NL4-3 [3]: 5 nM | Inhibition of HIV-1 infectivity, IC50 (nM), HC4 (gp41 of HIV-1 strain HC4): 27 nM | Inhibition of HIV-1 infectivity, IC50 (nM), CC 1/85 [4]: 140 nM | Inhibition of HIV-1 infectivity, IC50 (nM), DJ258 [5]: 58 nM | Ki (gp41-5 [6]): 0.2 nM | Ki (gp41-5 [7]): < 0.2 nM | Tm of the 1:1 NHR + CHR mixture (NHR α-peptide 1 [8]): 77 ° C. | Tm,app of the 1:1 NHR + CHR mixture (NHR α-peptide 1 [9]): 77 ° C.

Ac-[β3hT]TWE[β3hA]WD[β3hR]AIA[β3hE]YA[β3hA]RIE[β3hA]LI[β3hR]AAQ[β3hE]QQ[β3hE]KNE[β3hA]AL[β3hR]EL (also called oligomer 4) [α/β-peptide 4]
fold weaker binding than α-peptide 3 (gp41-5 [10]): > 10000 fold | Cell-Cell Fusion IC50 [1]: 390 nM | Cell-cell fusion inhibition IC50 [2]: 390 nM | Inhibition of HIV-1 infectivity, IC50 (nM), NL4-3 [3]: 700 nM | Inhibition of HIV-1 infectivity, IC50 (nM), HC4 (gp41 of HIV-1 strain HC4): 590 nM | Inhibition of HIV-1 infectivity, IC50 (nM), CC 1/85 [4]: 1300 nM | Inhibition of HIV-1 infectivity, IC50 (nM), DJ258 [5]: 960 nM | Ki (gp41-5 [6]): 3800 nM | Ki (gp41-5 [7]): 3800 nM

B1: (α+α/β)-peptide 5 (peptide)
peptide: Ac-TTWEAWDRAIAEYAARIEALI[β3hR]AAQ[β3hE]QQ[β3hE]KNE[β3hA]AL[β3hR]EL
notes: Chimera of α-peptide 3 and α/β-peptide 4; also called oligomer 5
Cell-Cell Fusion IC50 [1]: 7 nM | Cell-cell fusion inhibition IC50 [2]: 7 nM | Inhibition of HIV-1 infectivity, IC50 (nM), NL4-3 [3]: 10 nM | Inhibition of HIV-1 infectivity, IC50 (nM), HC4 (gp41 of HIV-1 strain HC4): 55 nM | Inhibition of HIV-1 infectivity, IC50 (nM), CC 1/85 [4]: 270 nM | Inhibition of HIV-1 infectivity, IC50 (nM), DJ258 [5]: 280 nM | Ki (gp41-5 [6]): 0.2 nM | Ki (gp41-5 [7]): < 0.2 nM | Tm of the 1:1 NHR + CHR mixture (NHR α-peptide 1 [8]): 69 ° C. | Tm,app of the 1:1 NHR + CHR mixture (NHR α-peptide 1 [9]): 67 ° C.

B2: α/β-peptide 10 (peptide)
peptide: Ac-[β3hT]TWE[ACPC]WD[APC]AIA[β3hE]YA[ACPC]RIE[ACPC]LI[APC]AAQ[β3hE]QQ[β3hE]KNE[ACPC]AL[APC]EL-NH2
notes: Made from 9 by replacing the three β3-hArg residues with APC; also called foldamer 10
fold difference in affinity against 5 (gp41-5 [10]): > 45 fold | fold enhanced binding relative to 4 (gp41-5 [10]): ~380 fold | fold improvement in Ki relative to 9 (gp41-5 [10]): ~10 fold | Cell-Cell Fusion IC50 [1]: 5 nM | Cell-cell fusion inhibition IC50 [2]: 5 nM | Inhibition of HIV-1 infectivity, IC50 (nM), NL4-3 [3]: 28 nM | Inhibition of HIV-1 infectivity, IC50 (nM), HC4 (gp41 of HIV-1 strain HC4): 59 nM | Inhibition of HIV-1 infectivity, IC50 (nM), CC 1/85 [4]: 180 nM | Inhibition of HIV-1 infectivity, IC50 (nM), DJ258 [5]: 110 nM | binding result [11]: binds | Ki (gp41-5 [6]): 9 nM | Ki (gp41-5 [7]): 9 nM | Tm of the 1:1 NHR + CHR mixture (NHR α-peptide 1 [8]): 55 ° C. | Tm,app of the 1:1 NHR + CHR mixture (NHR α-peptide 1 [9]): 55 ° C.

Ac-[β3hT]TWE[ACPC]WD[β3hR]AIA[β3hE]YA[ACPC]RIE[ACPC]LI[β3hR]AAQ[β3hE]QQ[β3hE]KNE[ACPC]AL[β3hR]EL (not fully specified, to be checked against the listing) [α/β-peptide 9]
fold higher affinity than 4 (gp41-5 [10]): 50 fold | fold improvement in Ki relative to 4 (gp41-5 [10]): > 45 fold | Ki (gp41-5 [6]): 83 nM | Ki (gp41-5 [7]): 83 nM

B3: α/β-peptide 6 (peptide)
peptide: Ac-TTWEAWDRAIAEYA[β3hA]RIE[β3hA]LI[β3hR]AAQ[β3hE]QQ[β3hE]KNE[β3hA]AL[β3hR]EL
notes: also called (α+α/β)-peptide 6; oligomer 6
Ki (gp41-5 [6]): 15 nM | Ki (gp41-5 [7]): 15 nM

Ac-TTWEAWDRAIAEYA[ACPC]RIE[ACPC]LI[β3hR]AAQ[β3hE]QQ[β3hE]KNE[ACPC]AL[β3hR]EL (also: other residues as in 6, also called oligomer 7) [α/β-peptide 7]
fold higher affinity relative to 6 (gp41-5 [10]): > 30 fold | fold improvement in binding relative to 6 (gp41-5 [10]): 40 fold | Ki (gp41-5 [6]): 0.4 nM | Ki (gp41-5 [7]): 0.4 nM

B4: α/β-peptide 11 (peptide)
peptide: Ac-A[β3hE]YA[ACPC]RIE[ACPC]LI[APC]AAQ[β3hE]QQ[β3hE]KNE[ACPC]AL[APC]EL
notes: also called oligomer 11; truncated α/β-peptide 11
Ki (gp41-5 [7]): > 10000 nM

B5: chimeric CHR α/β-peptide 8 (peptide)
peptide: Ac-TTWEAWDRAIAEYA[ACPC]RIE[ACPC]LI[APC]AAQ[β3hE]QQ[β3hE]KNE[ACPC]AL[APC]EL-NH2
modifications: not fully specified
notes: Made from 7 by replacing two β3-hArg residues with APC
Tm,app of the 1:1 NHR + CHR mixture (NHR α-peptide 1 [9]): 65 ° C.

Ac-[β3hR]TWE[β3hE]WD[β3hR]AIA[β3hE]YA[ACPC]RIE[ACPC]LI[APC]AAQ[ACPC]QQ[APC]KNE[ACPC]AL[APC]EL-NH2 (not fully specified, also called compound 16; peptide 16) [α/β foldamer 16]
Ki (gp41-5 [12]): 3 nM

Ac-[β3hR]TWE[β3hE]WD[β3hR]AIA[β3hE]YA[β3hR]RIE[β3hE]LI[β3hR]AAQ[β3hE]QQ[β3hR]KNE[β3hE]AL[β3hR]EL-NH2 (also called compound 17; peptide 17) [α/β foldamer 17]
Ki (gp41-5 [12]): 11 nM
